The results in this text go back to publication PMC4932547, “Improved Aptamers for the Diagnosis and Potential Treatment of HER2-Positive Cancer”.

This data set has as its target HER2 extracellular domain (UniProt P04626 23-652). The experiment in a line: SPRi; 5 mM Mg2+; negative aptamer spots subtracted; Selection buffer: 10 mM HEPES, 120 mM NaCl, 5 mM MgCl2, 5 mM KCl; pH not stated; SPRi temperature not stated (50 uL/min, 50 or 100 nM HER2, BSA-blocked chip); cell assays at 37 C. To be noted: protein: commercial.

B1: HeA2_3 (ssDNA)
DNA: TCTAAAAGGATTCTTCCCAAGGGGATCCAATTCAAACAGC
modifications: 5' hexyl-disulfide
With B1, binding was characterised by a dissociation constant (Kd) of 6.2 nM.

B2: HeA2_1 (ssDNA)
DNA: ATTAAGAACCATCACTCTTCCAAATGGATATACGACTGGG
modifications: 5' hexyl-disulfide
In the case of B2, binding was characterised by a dissociation constant (Kd) of 28.9 nM.
